Four molecules from patent US20150274820A1 (ESBATECH AN ALCON BIOMEDICAL RESEARCH UNIT, published 2015) can be followed below.

In test [1] the target is recombinant murine VEGF164 (mouse) (UniProt Q00731). Kind of test: Biacore SPR; ratio to hVEGF165. For orientation: Surface plasmon resonance follows binding to a sensor surface in real time, without labels.
The target in test [2] is recombinant rat VEGF164 (rat) (UniProt P16612). Kind of test: Biacore SPR; ratio to hVEGF165.
The target of test [3] is recombinant murine VEGF164 (mouse) (UniProt Q00731). Put plainly: Biacore SPR, pH 7.4 (data not shown).
For test [4], the target named is recombinant rat VEGF164 (rat) (UniProt P16612). Put plainly: Biacore SPR, pH 7.4 (data not shown).
For test [5], the target named is recombinant murine VEGF164 (mouse) (UniProt Q00731). Kind of test: Biacore SPR, VEGF immobilized, pH 5.
The target in test [6] is recombinant rat VEGF164 (rat) (UniProt P16612). Put plainly: Biacore SPR, VEGF immobilized, pH 5.
In test [7] the target is recombinant murine VEGF164 (mouse) (UniProt Q00731). Put plainly: Biacore SPR, pH 5 (text; Table 8b prints 5.67E-10).
The target of test [8] is T1, recombinant human VEGF165 (human, UniProt P15692 27-191).
T1 construct: mature; Isoform VEGF165 of the entry; also called hVEGF165; hVEGF
Kind of test: Biacore SPR, VEGF immobilized, pH 5.
Target sequence in this assay (P15692 other isoform, or with tags, fused parts or gaps): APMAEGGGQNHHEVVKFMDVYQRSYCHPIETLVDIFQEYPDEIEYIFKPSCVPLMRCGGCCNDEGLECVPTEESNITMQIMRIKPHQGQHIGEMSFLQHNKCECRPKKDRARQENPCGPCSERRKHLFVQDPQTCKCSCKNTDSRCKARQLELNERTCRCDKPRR

The target in test [9] is recombinant murine VEGF164 (mouse) (UniProt Q00731). Put plainly: cell-based or functional assay.
In test [10] the target is recombinant rat VEGF164 (rat) (UniProt P16612). Kind of test: cell-based or functional assay.
Test [11] addresses T1, recombinant human VEGF165. Kind of test: cell-based or functional assay.
Test [12] addresses T1, recombinant human VEGF165. Put plainly: cell-based or functional assay. This is another data set of the same source.
Test [13] concerns the target T2, recombinant human PLGF (human, UniProt P49763-2 19-149, limits assumed).
T2 construct: Negative control; also called PIGF
T2 sequence (looked up): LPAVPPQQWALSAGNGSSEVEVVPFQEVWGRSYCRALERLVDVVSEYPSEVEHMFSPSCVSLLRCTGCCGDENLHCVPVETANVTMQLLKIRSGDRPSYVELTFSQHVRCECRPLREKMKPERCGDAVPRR
Put plainly: Biacore SPR, PlGF immobilized, pH 5. How it is done:
(§1) In this example, the Biacore-binding ability of scFvs was tested and the binding affinity was measured using the exemplary surface plasmon resonance method with BIAcore™-T100. The VEGF proteins, tested for binding by these scFv candidates, in this example and later examples include purified Escherichia coli-expressed recombinant human VEGF₁₆₅ (PeproTech EC Ltd.), recombinant human VEGF₁₂₁ (PeproTech EC Ltd.), recombinant human VEGF₁₁₀ (ESBATech AG), recombinant murine VEGF₁₆₄ (PeproTech EC Ltd.), recombinant rat VEGF₁₆₄ (Biovision), recombinant rabbit VEGF₁₁₀ (ESBATech AG), and recombinant human PLGF (PeproTech EC Ltd.). For the surface plasmon resonance experiment, carboxymethylated dextran biosensor chips (CM4, GE Healthcare) were activated with N-ethyl-N′-(3-dimethylaminopropyl) carbodiimide hydrochloride and N-hydroxysuccinimide according to the supplier's instructions. Each of the 6 different VEGF forms, as exemplified above, was coupled to 1 of the 4 different flow cells on a CM4 sensor chip using a standard amine-coupling procedure. […] The 4th flow cell of each chip was treated similarly except no proteins were immobilized prior to blocking, and the flow cell was used as in-line reference. […] Dissociation of the anti-VEGF scFv from the VEGF on the CM4 chip was allowed to proceed for 10 min at 25° C. Sensorgrams were generated for each anti-VEGF scFv sample after in-line reference cell correction followed by buffer sample subtraction. The apparent dissociation rate constant (kd), the apparent association rate constant (kₐ) and the apparent dissociation equilibrium constant (KD) were calculated using one-to-one Langmuir binding model with BIAcore T100 evaluation Software version 1.1.

Test [14] has as its target T1, recombinant human VEGF165. Put plainly: VEGFR1/Fc competition ELISA on coated hVEGF165; ratio to Lucentis. How it is done: After 30-60 min of incubation at room temperature, the mixtures were transferred to the human VEGF₁₆₅ immobilized plate and incubated for 90 min. […] Optical density at 450 nm (OD 450 nm) was measured using a Sunrise microplate reader (Tecan). Data were analyzed as above, and EC₅₀ values were calculated from the dose-response curves of the scFvs.
Target sequence in this assay (P15692 other isoform, or with tags, fused parts or gaps): as the sequence (P15692 other isoform, or with tags, fused parts or gaps) above

Test [15] addresses T3, recombinant human VEGF110 (human, UniProt P15692-4 27-136, limits assumed).
T3 construct: Made in house; also called hVEGF110
T3 sequence (looked up): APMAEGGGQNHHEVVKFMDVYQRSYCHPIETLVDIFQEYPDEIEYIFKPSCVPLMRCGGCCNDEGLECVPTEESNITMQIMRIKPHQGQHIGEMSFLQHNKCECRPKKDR
Kind of test: Biacore SPR, VEGF immobilized, pH 5. How it is done: as §1

Test [16] concerns the target T4, recombinant human VEGF121 (human, UniProt P15692 27-147).
T4 construct: mature; Isoform VEGF121 of the entry; also called hVEGF121
T4 sequence (looked up): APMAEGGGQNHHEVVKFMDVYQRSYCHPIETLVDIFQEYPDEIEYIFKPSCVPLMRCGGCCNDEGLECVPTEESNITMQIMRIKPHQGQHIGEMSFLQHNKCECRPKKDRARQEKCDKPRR
Put plainly: Biacore SPR, VEGF immobilized, pH 5. The procedure: as §1

Test [17] deals with T1, recombinant human VEGF165. Kind of test: Biacore SPR, VEGF immobilized, pH 5. The procedure:
as §1
This is another data set of the same source.
Target sequence in this assay (P15692 other isoform, or with tags, fused parts or gaps): as the sequence (P15692 other isoform, or with tags, fused parts or gaps) above

Test [18] deals with T1, recombinant human VEGF165. Kind of test: cell-based or functional assay. The source holds these as a separate data set.
Target sequence in this assay (P15692 other isoform, or with tags, fused parts or gaps): as the sequence (P15692 other isoform, or with tags, fused parts or gaps) above
Test [19] deals with T1, recombinant human VEGF165. Put plainly: Biacore SPR, VEGF immobilized, pH 5. This is another data set of the same source.
Target sequence in this assay (P15692 other isoform, or with tags, fused parts or gaps): as the sequence (P15692 other isoform, or with tags, fused parts or gaps) above
Test [20] concerns the target T1, recombinant human VEGF165. Put plainly: Biacore SPR, VEGF immobilized, pH 7.4.
Target sequence in this assay (P15692 other isoform, or with tags, fused parts or gaps): as the sequence (P15692 other isoform, or with tags, fused parts or gaps) above

“And” between values parts separate entries of the source, which are not always exact repeats. Identical values can stand only once.

B1: 578minmax (scFv)
scFv: EIVMTQSPSTLSASVGDRVIITCQASEIIHSWLAWYQQKPGKAPKLLIYLASTLASGVPSRFSGSGSGAEFTLTISSLQPDDFATYYCQNVYLASTNGANFGQGTKLTVLGGGGGSGGGGSGGGGSGGGGSEVQLVESGGGLVQPGGSLRLSCTASGFSLTDYYYMTWVRQAPGKGLEWVGFIDPDDDPYYATWAKGRFTISRDTSKNTVYLQMNSLRAEDTAVYYCAGGDHNSGWGLDIWGQGTLVTVSS
notes: also called ESBA903; 903
On to B1, for which, in [1], the relative value KdhVEGF165/KdmVEGF164 is 1.1 and the relative value kdhVEGF165/kdmVEGF164 was 0.8. Moreover, in [2], the relative value KdhVEGF165/KdmVEGF164 (rat block) was determined as 0.8 and the relative value kdhVEGF165/kdmVEGF164 (rat block) amounted to 0.8. For the same molecule, in test [3], the Kd (usually the concentration at which binding is half-saturated) was found to be 0.0273 nM. Moreover, the Kd in [4] amounted to 0.0219 nM. Besides, in [5], the Kd was found to be 0.567 nM; the koff – broadly, the first-order rate constant of dissociation – came out at 0.000657 s⁻¹; the association rate constant (kon) – broadly, a measure of how fast the partners come together – is 1.14e+06 M⁻¹ s⁻¹. Besides, in test [6], the Kd was 0.748 nM, the koff was found to be 0.000641 s⁻¹ and the on-rate (kon) came to 858000 M⁻¹ s⁻¹. Moreover, the Kd in [7] came to 0.576 nM. Further, in test [8], the dissociation constant Kd amounted to 0.625 nM, the koff was 0.000504 s⁻¹ and the on-rate (kon) was 806000 M⁻¹ s⁻¹. In addition, the EC50, HUVEC proliferation induced by mouse VEGF164 in test [9] was determined as 0.0631 nM. Besides, in test [10], the EC50, HUVEC proliferation induced by rat VEGF164 was found to be 0.0697 nM. Moreover, in test [11], the “Rel. activity in HUVEC assay (EC50Luc[nM]/EC50test[nM]) hVEGF” value was 1.6 and 1.4. In [12], the “EC50, HUVEC proliferation induced by hVEGF165” value was determined as 0.0552 nM and the “potency in HUVEC assay relative to Lucentis” value was approximately 1.6 fold.

B2: 578-min (scFv)
scFv: EIVMTQSPSTLSASVGDRVIITCQASEIIHSWLAWYQQKPGKAPKLLIYLASTLASGVPSRFSGSGSGAEFTLTISSLQPDDFATYYCQNVYLASTNGANFGQGTKLTVLGGGGGSGGGGSGGGGSGGGGSEVQLVESGGGLVQPGGSLRLSCAASGFSLTDYYYMTWVRQAPGKGLEWVSFIDPDDDPYYATWAKGRFTISRDNSKNTLYLQMNSLRAEDTAVYYCAKGDHNSGWGLDIWGQGTLVTVSS
notes: also called EP578 min; Protein Nr; 820
As for B2, the binding result in [13] was “no binding”. Moreover, the “Rel. activity hVEGR1 comp. ELISA (EC50Luc[nM]/EC50test[nM])” value in test [14] came to 4.8. The dissociation rate constant (koff) is 0.0151 s⁻¹ in [5]; 0.0182 s⁻¹ in test [6]; 0.0104 s⁻¹ in test [15]; 0.0088 s⁻¹ in test [16]; 0.0103 s⁻¹ in test [17]; 0.0103 s⁻¹ in [8]. The off-rate constant (koff) in [19] turned out to be 0.0103 s⁻¹; in test [20] it was 0.000202 s⁻¹. Further, the kon in [5] stood at 1.4e+06 M⁻¹ s⁻¹; in test [6], 1.7e+06 M⁻¹ s⁻¹; in test [15], 915000 M⁻¹ s⁻¹; in test [16], 961000 M⁻¹ s⁻¹; in test [17], 1.14e+06 M⁻¹ s⁻¹; in test [8], 1.14e+06 M⁻¹ s⁻¹. The association rate constant (kon) came to 1.14e+06 M⁻¹ s⁻¹ in test [19] and 1.11e+06 M⁻¹ s⁻¹ in test [20]. Also, the “Rel. activity in HUVEC assay (EC50Luc[nM]/EC50test[nM])” value in [18] was found to be 0.1. For the same molecule, in [11], the “Rel. activity in HUVEC assay (EC50Luc[nM]/EC50test[nM]) hVEGF” value was found to be 0.1. Moreover, in test [12], the “EC50 in HUVEC assay (FIG. 8d)” value is 1.53 nM.

B3: 511-max (scFv)
scFv: EIVMTQSPSTLSASVGDRVIITCQASQSINIWLSWYQQKPGKAPKLLIYRASTLASGVPSRFSGSGSGTEFTLTISSLQPDDFATYYCQANYAYSAGYGAAFGQGTKLTVLGGGGGSGGGGSGGGGSGGGGSEVQLVESGGGLVQPGGSLRLSCTVSGFSLNTYYMNWVRQAPGKGLEWVGIIAPDDTTYYASWAKSRSTISRDTSKNTVYLQMNSLRAEDTAVYYCARSGDTTAWGADIWGQGTLVTVSS
notes: also called ESBA802
B3: in test [13], the binding result was “no binding”. Also, the “Rel. activity hVEGR1 comp. ELISA (EC50Luc[nM]/EC50test[nM])” value in test [14] was 8. For the same molecule, the koff in test [5] stood at 4.61e-05 s⁻¹; in test [6], 6.63e-05 s⁻¹; in [15], 7.96e-05 s⁻¹; in test [16] it was 9.97e-05 s⁻¹; in [17], 4.4e-05 s⁻¹; in test [8], 4.4e-05 s⁻¹. Moreover, the koff turned out to be 4.4e-05 s⁻¹ in test [19] and 6.85e-05 s⁻¹ in test [20]. Besides, the on-rate (kon) in test [5] turned out to be 753000 M⁻¹ s⁻¹; in [6], 626000 M⁻¹ s⁻¹; in test [15], 405000 M⁻¹ s⁻¹; in test [16] it was 467000 M⁻¹ s⁻¹; in test [17] it was 659000 M⁻¹ s⁻¹; in test [8], 659000 M⁻¹ s⁻¹. Besides, the kon in test [19] was 659000 M⁻¹ s⁻¹; in test [20], 800000 M⁻¹ s⁻¹. Also, the “Rel. activity in HUVEC assay (EC50Luc[nM]/EC50test[nM])” value in test [18] turned out to be 0.0179. Further, in test [11], the “Rel. activity in HUVEC assay (EC50Luc[nM]/EC50test[nM]) hVEGF” value turned out to be 0.0179.

B4: 534-max (scFv)
scFv: EIVMTQSPSTLSASVGDRVIITCQASQSINIWLSWYQQKPGKAPKLLIYKESTLASGVPSRFSGSGSGTEFTLTISSLQPDDFATYYCQNNYDSGNNGFPFGQGTKLTVLGGGGGSGGGGSGGGGSGGGGSEVQLVESGGGLVQPGGSLRLSCTASGFSLSYYYMSWVRQAPGKGLEWVGIIGPGDYTDYASWAKGRFTISKDTSKNTVYLQMNSLRAEDTAVYYCARGDDNSGWGEDIWGQGTLVTVSS
notes: VL and VH tied by name; also called EP534max; Protein Nr; 793
Consider B4, for which the “Rel. activity in HUVEC assay (EC50Luc[nM]/EC50test[nM])” value in [18] amounted to 0.0014. Besides, the “EC50 in HUVEC assay (FIG. 8c)” value in [12] worked out at 63.5 nM. In [19], the dissociation rate constant (koff) came to 0.0173 s⁻¹ and the kon turned out to be 1.88e+06 M⁻¹ s⁻¹. In test [20], the koff amounted to 0.00262 s⁻¹ and the kon is 1.06e+06 M⁻¹ s⁻¹.
